Experimental data taken from US20230057904A1 (Chugai, published 2023).
Where a chain is given by its changes, count along the chain named.

T1: human CLDN3 (human, UniProt O15551 1-220)
T1 construct: also called hCLDN3; hCLDN3/BaF
T1 sequence: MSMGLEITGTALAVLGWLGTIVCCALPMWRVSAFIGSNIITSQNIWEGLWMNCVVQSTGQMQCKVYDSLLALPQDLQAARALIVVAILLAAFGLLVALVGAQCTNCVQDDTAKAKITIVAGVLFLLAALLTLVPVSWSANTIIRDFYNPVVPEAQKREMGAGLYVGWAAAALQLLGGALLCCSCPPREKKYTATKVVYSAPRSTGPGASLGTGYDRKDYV

T2: human CLDN4 (human, UniProt O14493 1-209)
T2 construct: also called hCLDN4; hCLDN4/BaF
T2 sequence: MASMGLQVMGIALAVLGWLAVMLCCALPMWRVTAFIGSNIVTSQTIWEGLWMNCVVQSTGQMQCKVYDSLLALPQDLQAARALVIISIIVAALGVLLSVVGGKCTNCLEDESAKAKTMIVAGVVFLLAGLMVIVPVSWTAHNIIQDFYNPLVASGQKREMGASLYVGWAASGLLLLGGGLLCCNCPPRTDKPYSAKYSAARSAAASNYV

T3: mouse CLDN3 (mouse, UniProt Q9Z0G9 1-219)
T3 construct: also called mCLDN3; mCLDN3/FS293
T3 sequence: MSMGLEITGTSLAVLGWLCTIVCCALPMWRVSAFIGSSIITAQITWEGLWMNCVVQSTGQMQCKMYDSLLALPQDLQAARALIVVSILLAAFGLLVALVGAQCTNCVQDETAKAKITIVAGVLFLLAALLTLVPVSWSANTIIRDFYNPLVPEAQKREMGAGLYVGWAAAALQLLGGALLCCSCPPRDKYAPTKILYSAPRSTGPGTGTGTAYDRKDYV

T4: mouse CLDN9 (mouse, UniProt Q9Z0S7 1-217)
T4 construct: also called mCLDN9; mCLDN9/FS293
T4 sequence: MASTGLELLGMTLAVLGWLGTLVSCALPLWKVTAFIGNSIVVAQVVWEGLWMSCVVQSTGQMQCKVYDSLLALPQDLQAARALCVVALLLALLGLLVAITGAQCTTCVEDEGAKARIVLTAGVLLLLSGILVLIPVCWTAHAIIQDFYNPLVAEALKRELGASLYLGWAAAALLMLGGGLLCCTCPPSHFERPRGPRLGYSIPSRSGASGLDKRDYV

T5: mouse CLDN6 (mouse, UniProt Q9Z262 1-219)
T5 construct: also called mCLDN6; mCLDN6/FS293
T5 chain: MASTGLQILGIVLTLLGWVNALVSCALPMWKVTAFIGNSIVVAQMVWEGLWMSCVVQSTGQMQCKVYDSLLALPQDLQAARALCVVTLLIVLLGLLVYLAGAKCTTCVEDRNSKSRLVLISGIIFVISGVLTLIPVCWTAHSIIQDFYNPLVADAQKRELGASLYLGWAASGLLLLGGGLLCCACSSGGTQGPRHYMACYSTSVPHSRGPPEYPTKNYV

B1: bivalent IgG antibody 25H0021/20L0072 (antibody, V domains shown)
VH: QVQLVESGGGVVQPGRSLRLSCAASGFTFSSLTMSWVRQAPGQGLEWMGTISSGGGRTYYPDSVKGRFTISRDNSKNTLYLQMNSLRAEDTAVYYCARGDYRYDGFAYWGQGTLVTVSS
VL: DIQMTQSPSSLSASVGDRVTITCRASYNIDSYLAWYQQKPGKAPKLLIYASTLLVDGVPSRFSGSRSGTDFTLTISSLQPEDFATYYCQHYYSIPYTFGQGTKLEIK
B2: bivalent IgG antibody 25H0024/20L0072 (antibody, V domains shown)
VH: B1 VH with L32V
VL: B1 VL
B3: CS2201 (bispecific antibody, V domains shown)
VH 1: B1 VH with L32Y
VL 1: B1 VL with A50Y
VH 2: QVQLVESGGGVVQPGGSLRLSCAASGFTFSNAWMHWVRQAPGKGLEWVAQIKDKSQNYATYVAESVKGRFTISRADSKNSIYLQMNSLKTEDTAVYYCRYVHYAAGYGVDIWGQGTTVTVSS
VL 2: DIVMTQSPLSLPVTPGEPASISCRSSQPLVHSNRNTYLHWYQQKPGQAPRLLIYKVSNRFSGVPDRFSGSGSGTDFTLKISRVEAEDVGVYYCGQGTQVPYTFGQGTKLEIK
notes: Fab arm exchange, silent Fc; also called 25H/20L0532//TR01
B4: bivalent IgG antibody 25H0562/20L0072 (antibody, V domains shown)
VH: B1 VH with L32Y, Y108M
VL: B1 VL
B5: bivalent IgG antibody 25H0176/20L0072 (antibody, V domains shown)
VH: B1 VH with L32Y, G54K
VL: B1 VL
B6: bivalent IgG antibody 25H0322/20L0072 (antibody, V domains shown)
VH: B1 VH with L32Y, D62F
VL: B1 VL
B7: bivalent IgG antibody 25H0042/20L0072 (antibody, V domains shown)
VH: B1 VH with L32Y, T33V
VL: B1 VL
B8: AH05/TR01 (bispecific antibody, V domains shown)
VH 1: EVQVEQSGPELVKPGASVKISCKTSGYTFTEYTMHWVKQSHGKSLEWIGGINPNNGNTRYNQKFKGKATLTVDKSSSTAYMELRTLTSEDSAVYYCARCGDFDLFFFFAYWGQGTLVTVSA
VL 1: DIVMTQSQKFMSTSVGDRVSVTCKASQNVGSNVAWYQQKPGQSPEGLISSASSRFSGVPDRFTGSGSGTDFTLTITNVQSEDLAEYFCQQYNSYPFTFGSGTELEIK
VH 2: B3 VH 2
VL 2: B3 VL 2
notes: IgG format by Fab arm exchange, silent Fc; also called anti-CLDN6/CD3 bispecific antibody AH05/TR01
B9: AE3-20/TR01 (bispecific antibody, V domains shown)
VH 1: EVKLVESGGGLVKPGGSLKLSCAASGFTFNSYTMSWVRQTPAKRLEWVVTISSGGGRTYYPDSVKGRFTISRDNARNTLYLQMSSLRSEDTAMYYCIRGDYRYDGFAYWGQGTLVTVST
VL 1: DIQMTQSPASLSASVGETVTITCRASENIDSYLAWYQQKQGKSPQLLVYASTLLVDGVPSRFSGSRSGTQFSLKINSLQSEDVARYYCQHYYSIPYTFGSGTKLEIK
VH 2: B3 VH 2
VL 2: B3 VL 2
notes: also called anti-CLDN6/CD3 bispecific antibody AE3-20/TR01; AE3.20H/AE3.20L//TR01

Legend:
ECM [1] = assay: ECM binding assay, ECL reaction
ECM [2] = assay: ECM binding assay, ECL reaction, value divided by that of MRA
human CLDN3 [3] = molecular target: T1, human CLDN3; assay: flow cytometry on hCLDN3/BaF (Ba/F3 transfectant), 15 micro g/ml antibody, Alexa Fluor 488 anti-human IgG; histogram against KLH/TR01
Description: (§1) Amino acid sequence are highly conserved among CLDN3, CLDN4, CLDN6 and CLDN9. Thus we examined CLDN6 binding specificity by FACS analysis. hCLDN6/BaF, hCLDN3/BaF, hCLDN4/BaF, and hCLDN9/BaF were incubated with CS2201, CS2961, AH05/TR01 and 6PHU3/TR01 at 15 micro g/ml. KLH/TR01 generated in Example 2-3 was used as a staining control. Binding of each antibody was detected with Alexa Fluor 488-conjugated anti human IgG (Invitrogen). Dead cells were separated by eFlour 780 (Invitrogen) staining.

human CLDN4 = molecular target: T2, human CLDN4; assay: flow cytometry on hCLDN4/BaF (Ba/F3 transfectant), 15 micro g/ml antibody, Alexa Fluor 488 anti-human IgG; histogram against KLH/TR01
Description: FIG. 35-1. Binding activity of anti-CLDN6/CD3 bispecific antibodies (CS2201, CS2961, AH05/TR01, and 6PHU3/TR01) to human CLDN family proteins (CLDN3, CLDN4, CLDN6, and CLDN9). Binding activity of anti-CLDN6/CD3 bispecific antibodies to BaF3 transfectants (hCLDN6/BaF, hCLDN3/BaF, hCLDN4/BaF, and hCLDN9/BaF) was examined by flow cytometer in a concentration of 15 micro g/ml, and plotted as histogram. KLH/TR01 was used as a negative control. The specificity of CS2961 to human CLDN6 was highest among the tested antibodies.
as §1

mouse CLDN3 = molecular target: T3, mouse CLDN3; assay: flow cytometry, FreeStyle 293-F transfectants expressing mouse CLDN3, anti-human IgG Alexa Fluor 647; MFI
Description: (§2) Antibodies were mixed with FreeStyle™ 293-F cells transiently expressed human and mouse CLDN3, 4, 6, and 9 at final concentration of 10 micro g/mL. After 1 hour of incubation, cells were washed by 0.1% BSA containing D-PBS(−), and incubated in 5 micro g/mL of either Goat anti-Human IgG (H+L) Cross-Adsorbed Secondary Antibody, Alexa Fluor 647 (Invitrogen, A21445) or Goat anti-Mouse IgG (H+L) Highly Cross-Adsorbed Secondary Antibody, Alexa Fluor 647 (Invitrogen, A21236), for 1 hour. Cells were then washed with 0.1% BSA containing D-PBS(−), resuspended in 5 micro L of 0.1% BSA containing D-PBS(−), and analyzed by flow cytometer (iQue Screener, intellicyte).

mouse CLDN9 = molecular target: T4, mouse CLDN9; assay: flow cytometry, FreeStyle 293-F transfectants expressing mouse CLDN9, anti-human IgG Alexa Fluor 647; MFI
Description: as §2

human CLDN3 [4] = molecular target: T1, human CLDN3; assay: flow cytometry, FreeStyle 293-F transfectants expressing human CLDN3, anti-human IgG Alexa Fluor 647; MFI
Description: as §2

mouse CLDN6 = molecular target: T5, mouse CLDN6; assay: flow cytometry, FreeStyle 293-F transfectants expressing mouse CLDN6, 10 micro g/mL antibody, anti-human IgG Alexa Fluor 647; MFI
Description: as §2

Molecule	Luminescence (ECM [1])	Luminescence ratio vs MRA (ECM [2]) [fold]	also measured
MRA (antibody)	13000	1	–
B1	32900	2.52	–
B2	29600	2.27	–
B3	–	–	binding result (human CLDN3 [3]): binds; binding result (human CLDN4): binds
B4	32600	2.5	–
B5	77000	5.91	–
B6	70600	5.41	–
B7	40400	3.1	–
B8	–	–	binding result (mouse CLDN3): no binding (tested: 10 micro g/mL); binding result (mouse CLDN9): no binding (tested: 10 micro g/mL); binding result (human CLDN3 [4]): no binding (tested: 10 micro g/mL); binding result (mouse CLDN6): binds
B9	–	–	binding result (mouse CLDN3): no binding (tested: 10 micro g/mL); binding result (human CLDN3 [4]): no binding (tested: 10 micro g/mL)
